Measured values from patent US20250304717A1, “CAMPTOTHECIN DERIVATIVE AND LIGAND-DRUG CONJUGATE” (HAINAN SIMCERE ZAIMING PHARMACEUTICAL CO., LTD., priority 2022, published 2025).
Read-outs that look alike come from different tables or passages of the source.

Tests used:
[1] = target: human ROR1 on stably transfected cell strain MCF7-hROR1 clone 2G2 (human) (UniProt Q01973); experiment: flow cytometry (FACS) on MCF7-hROR1 clone 2G2 cells, identification of the stably transfected clone
SKBR3 tumor cell = experiment: Binding of anti-HER2 ADC and antibody with SKBR3 tumor cell by FACS; set-up: species or system human
Description: (§1) SKBR3 cells (from ATCC) were collected, counted, and plated in a 96-well plate (Corning, 3795) at 2×10^5 cells/well. The serially diluted sample to be detected was added and incubated at 4° C. for 1 h. After the mixture was washed twice with ice PBS, Alexa Fluor-647 goat anti-human Fc secondary antibody (JacksonImmuno, 109-605-098) was added, and the mixture was incubated at 4° C. for 1 h. After the mixture was washed twice with ice PBS, the cells were resuspended, and the mean fluorescence intensity (MFI) was analyzed using a flow cytometer (BD FACSCanto™ II). Data were analyzed by four-parameter curve fitting using Graphpad Prism software to give EC50 values.

MCF7-hROR1 clone 2G2 = experiment: FACS identification of MCF7 cell line stably transfected with human ROR1 protein; type: binding
Description: A nucleotide sequence encoding the amino acid sequence of human ROR1 (SEQ ID NO: 105) was cloned into a pLVX lentiviral vector, and viral particles were prepared in HEK293T cells. After lentivirus infection, the MCF7 cell line (purchased from Chinese Academy of Science), was selectively cultured in a DMEM (Gibco, Cat. No. 11995073) medium containing 5 μg/mL puromycin (Gibco, Cat. No. A1113803) and 10% (w/w) fetal bovine serum (ExCell Bio, Cat. No. FND500) for 1 week. Positive cell populations with different expression levels were sorted on a flow cytometer FACS Aria III (purchased from BD Biosciences) using ROR1-Ab-1 and goat anti-mouse IgG (H+L) antibody (Jackson, Cat. No. 115605006) and cultured in 96-well plates at 37° C. with 5% (v/v) CO2. After about 2 weeks, a portion of the cells were selected for expansion, and positive cell populations with better growth, higher fluorescence intensity, and better homogeneity were selected, further expanded and cryopreserved in liquid nitrogen.

CDH6 on OVCAR3 cells = target: T1, CDH6 on OVCAR3 cells (human, UniProt P55285 54-790); experiment: flow cytometry (FACS) on OVCAR3 cells, Alexa Fluor 647 anti-human Fc secondary antibody, MFI, four-parameter fit
T1 construct: whole, on cells; also called CDH6 positive cells OVCAR3; CDH6 high-expression cell strain
T1 sequence (looked up): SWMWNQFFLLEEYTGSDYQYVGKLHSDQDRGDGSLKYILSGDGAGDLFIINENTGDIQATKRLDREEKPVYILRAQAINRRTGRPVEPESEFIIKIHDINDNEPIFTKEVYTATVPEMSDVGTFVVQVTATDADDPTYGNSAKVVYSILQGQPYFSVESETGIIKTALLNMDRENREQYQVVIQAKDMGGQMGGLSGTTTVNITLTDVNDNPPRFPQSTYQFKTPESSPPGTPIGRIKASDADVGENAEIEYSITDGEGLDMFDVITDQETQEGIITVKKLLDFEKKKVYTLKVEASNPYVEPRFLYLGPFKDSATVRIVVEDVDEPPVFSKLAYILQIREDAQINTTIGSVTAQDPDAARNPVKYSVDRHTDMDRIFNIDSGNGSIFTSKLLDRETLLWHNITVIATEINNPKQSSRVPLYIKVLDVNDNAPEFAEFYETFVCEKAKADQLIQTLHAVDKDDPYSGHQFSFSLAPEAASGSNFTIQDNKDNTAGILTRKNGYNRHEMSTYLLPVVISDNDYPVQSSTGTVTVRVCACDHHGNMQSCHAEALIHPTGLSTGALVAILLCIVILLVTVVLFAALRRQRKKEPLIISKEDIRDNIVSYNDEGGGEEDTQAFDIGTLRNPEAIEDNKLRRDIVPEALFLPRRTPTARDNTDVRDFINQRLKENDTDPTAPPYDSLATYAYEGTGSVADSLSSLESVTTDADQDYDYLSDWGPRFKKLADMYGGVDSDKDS
Description: as §1, with “OVCAR3” for “SKBR3”, “cells” for “cells (from ATCC)”, “2×10⁵” for “2×10^5”, “Goat” for “goat”, “EC₅₀” for “EC50”

[2] = system: OVCAR3 subcutaneous tumor model; experiment: Efficacy in OVCAR3 subcutaneous tumor model-1; type: in vivo, Balb/c nude mice; details: 3 mg/kg, single intravenous injection
From the text: Experimental reagent: Human ovarian cancer OVCAR3 cells were purchased from ATCC, RPMI-1640 medium was purchased from Gibco (Cat. No. A104910), fetal bovine serum was purchased from Excell (Cat. No. FND500), penicillin-streptomycin was purchased from Gibco (Cat. No. 15140122), bovine insulin was purchased from Yeasen (Cat. No. 40107ES60), 0.25% trypsin-EDTA was purchased from Gibco (Cat. No. 25200-072), D-PBS (phosphate-buffered saline without calcium and magnesium ions) was purchased from Hyclone (Cat. No. SH30256.01), and Matrigel was purchased from Corning (Cat. No. 356237).
Animal information: Balb/c nude mice, female, 5-6 weeks, weight about 14-20 g, purchased from Beijing Vital River Biotechnology Co., Ltd. The mice were bred in SPF-rated environment with air exhaust for each cage individually. All animals had free access to standard certified commercial laboratory diets and water.
Cell culture: The human ovarian cancer OVCAR3 cell strain was cultured in vitro under the conditions of RPMI-1640 added with 20% fetal bovine serum, 1% penicillin-streptomycin, and […] bovine insulin, and an incubator at 37° C. with 5% CO2. The cells were digested with a 0.25% trypsin-EDTA digestive solution once a week for passaging as per conventional practice. When the cell saturation was 80%-90% and a required amount was achieved, the cells were collected and counted.
Cell inoculation: 0.1 mL of OVCAR3 cell suspension (containing 1×10^7 cells, RPMI-1640: Matrigel, volume ratio 1:1) was inoculated subcutaneously into the axilla of each mouse. On day 26 after inoculation of the cells, the mice were randomly grouped and administrated based on tumor volume.
The day when random grouping was performed was day 0.
Tumor diameters were measured twice weekly using a vernier caliper. The tumor volume was calculated using the following formula: V=0.5a×b^2, where a and b represent the long diameter and short diameter of the tumor, respectively. Mouse body weight was measured twice weekly.

[3] = 37° C., 100 μg/mL
Description: ADC molecules (final concentration: 100 μg/mL) were separately incubated with human plasma (Oribiotech, PB021-C) and monkey plasma (Shinuoda Bio, SND-X0107) in an incubator at 37° C. The day of incubation was defined as day 0. Samples were taken on days 7, 14 and 28 and tested for the free small molecule.
300 μL of an internal standard working solution (acetonitrile preparation) was added to 20 μL of the sample, and the mixture was vortexed for mixing for 5 min and centrifuged for 5 min (14000 rpm). 4 μL of the supernatant was analyzed by LC-MS/MS (API 6500+).

IgG subtype control (antibody)
Mean fluorescence intensity of cells [1]: 54.7

Pertuzumab: anti-human HER2 monoclonal antibody; VH SEQ ID NO: 3, VL SEQ ID NO: 4 [reference compound]
EC50 (SKBR3 tumor cell): 3.73 nM

B1: ROR1-Ab-1: anti-human ROR1 monoclonal antibody, variable region sequence from patent WO2020198531A2; SEQ ID NO: 80/81 (antibody, V domains shown)
VH: QVQLQESGPGLVKPSQTLSLTCTVSGYAFTAYNIHWVRQAPGQGLEWMGSFDPYDGGSSYNQKFKDRLTISKDTSKNQVVLTMTNMDPVDTATYYCARGWYYFDYWGHGTLVTVSS
VL: DIVMTQTPLSLPVTPGEPASISCRASKSISKYLAWYQQKPGQAPRLLIYSGSTLQSGIPPRFSGSGYGTDFTLTINNIESEDAAYYFCQQHDESPYTFGEGTKVEIK
Mean fluorescence intensity of cells (MCF7-hROR1 clone 2G2): 26497

B2: CDH6-Ab-2 (antibody, human IgG1, kappa, V domains shown)
VH: EVQLVQSGAEVKKPGASVKVSCKASGYTFTDNYINWVRQAPGQRLEWMGWIYPGTGNSYYNEKFKGRVTITVDTSASTAYMELSSLRSEDTAVYLCASSYGDSFDYWGQGTTVTVSS
VL: DIVMTQSPDSLAVSLGERATINCRASQDIRNYLNWYQQKPGQTPKLLISYTSRLHSGVPDRFSGSGSGTDFTLTISSLQAEDVAVYYCQQYSQLPWTFGGGTKVEIKR
notes: also called humanized anti-human CDH6 antibody CDH6-Ab-2
EC50 (CDH6 on OVCAR3 cells): 630 pM

B3: ADC-DS: comparator CDH6 antibody-drug conjugate of Table 9, DAR 7.5 (conjugate, chains of the INN, looked up)
VH: EVQLVQSGAEVKKPGASVKVSCKASGYTFTRNFMHWVRQAPGQGLEWMGWIYPGDGETEYAQKFQGRVTITADTSTSTAYMELSSLRSEDTAVYYCARGVYGGFAGGYFDFWGQGTLVTVSS
VL: DIQMTQSPSSLSASVGDRVTITCKASQNIYKNLAWYQQKPGKAPKLLIYDANTLQTGVPSRFSGSGSGSDFTLTISSLQPEDFATYFCQQYYSGWAFGQGTKVEIK
modifications: deruxtecan payload, DAR 7.5
Mean tumor volume (mm^3) Day 0 ([2]; Table 23): 154.4 mm^3
Mean tumor volume (mm^3) Day 4 ([2]; Table 23, Day 4): 211.3 mm^3
Mean tumor volume (mm^3) Day 7 ([2]; Table 23, Day 7): 194.1 mm^3
Mean tumor volume (mm^3) Day 11 ([2]; Table 23, Day 11): 159.5 mm^3
Mean tumor volume (mm^3) Day 14 ([2]; Table 23, Day 14): 131.5 mm^3
Mean tumor volume (mm^3) Day 18 ([2]; Table 23, Day 18): 95.5 mm^3
Mean tumor volume (mm^3) Day 22 ([2]; Table 23): 73.6 mm^3
Mean tumor volume (mm^3) Day 25 ([2]; Table 23, Day 25): 66.0 mm^3
Mean tumor volume (mm^3) Day 28 ([2]; Table 23, Day 28): 77.8 mm^3
TGI (%) Day 28 ([2]; Table 23, Day 28): 110.6%
Mean tumor volume (mm^3) Day 0 ([2]; Table 24): 145.0 mm^3
Mean tumor volume (mm^3) Day 5 ([2]; Table 24, Day 5): 165.9 mm^3
Mean tumor volume (mm^3) Day 8 ([2]; Table 24, Day 8): 153.4 mm^3
Mean tumor volume (mm^3) Day 12 ([2]; Table 24, Day 12): 91.4 mm^3
Mean tumor volume (mm^3) Day 16 ([2]; Table 24, Day 16): 56.2 mm^3
Mean tumor volume (mm^3) Day 19 ([2]; Table 24, Day 19): 41.2 mm^3
Mean tumor volume (mm^3) Day 22 ([2]; Table 24): 28.9 mm^3
Mean tumor volume (mm^3) Day 27 ([2]; Table 24, Day 27): 23.4 mm^3
TG (%) Day 27 ([2]; Table 24, Day 27): 134.2%
Free small molecule % ([3]; Human plasma, incubation 0 day): 0.59%
Free small molecule % ([3]; Human plasma, incubation 7 days): 0.72%
Free small molecule % ([3]; Human plasma, incubation 14 days): 1.21%
Free small molecule % ([3]; Human plasma, incubation 28 days): 1.90%
Free small molecule % ([3]; Monkey plasma, incubation 0 day): 0.64%
Free small molecule % ([3]; Monkey plasma, incubation 7 days): 2.28%
Free small molecule % ([3]; Monkey plasma, incubation 14 days): 4.03%
Free small molecule % ([3]; Monkey plasma, incubation 28 days): 9.66%

B4: ADC-L1-19-6 (antibody, human IgG1, kappa, V domains shown)
VH: EVQLVQSGAEVKKPGASVKVSCKASGYTFTDYYMAWVRQAPGQGLEWMGYIFPNSGGTDYSQKFKGRVTLTVDKSTSTVYMELSSLRSEDTAVYYCARELGADYGDYYAMDHWGQGTTVTVSS
VL: DIQMTQSPSSLSASVGDRVTITCRASENIDSYLAWYQQKPGKSPKLLVYSATLLADGVPSRFSGSGSGTDYTLTISSLQPEDFATYYCQHYYRTPPTFGQGTKLEIKR
modifications: drug-linker L1-19 on cysteine thiols after TCEP reduction; positions not given; DAR 7.4 for the whole conjugate
notes: Antibody-drug conjugate
EC50 (CDH6 on OVCAR3 cells): 850 pM

B5: ADC-L1-19-P1-6 (antibody, human IgG1, kappa, V domains shown)
VH: B4 VH
VL: B4 VL
modifications: drug-linker L1-19-P1 on cysteine thiols after TCEP reduction; positions not given; DAR 8.0 for the whole conjugate
notes: Antibody-drug conjugate
EC50 (CDH6 on OVCAR3 cells): 800 pM

B6: CDH6-Ab-3 (antibody, human IgG1, kappa, V domains shown)
VH: B4 VH
VL: B4 VL
notes: also called humanized anti-human CDH6 antibody CDH6-Ab-3
EC50 (CDH6 on OVCAR3 cells): 780 pM
